Experimental data: the supplement of paper PMC7877785
± gives the uncertainty stated by the source.

Experiment: self-splicing fitness, log relative to wild type (ln ratio); higher = more splicing; Tetrahymena group I intron in knt gene, E. coli kanamycin selection, DiMSum; sequences stand for … in CUCUCU…GGAGGGAAAAGUUAUCAGGCAUGCACCUGGUAGCUAGUCUUUAAACCAAUAGAUUGCAUCGGUUUAAAAGGCAAGACCGUCAAAUUGCGGGAAAGGGGUCAACAGCCGUUCAGUACCAAGUCUCAGGGGAAACUUUGAGAUGGCCUUGCAAAGGGUAUGGUAAUAAGCUGACGGACAUGGUCCUAACCACGCAGCCAAGUCCUAAGUCAACAGAUCUUCUGUUGAUAUGGAUGCAGUUCACAGACUAAAUGUCGGUCGGGGAAGAUGUAUUCUUCUCAUAAGAUAUAGUCGGACCUCUCCUUAAUGGGAGCUAGCGGAUGAAGUGAUGCAACACUGGAGCCGCUGGGAACUAAUUUGUAUGCGAAAGUAUAUUGAUUAGUUUUGGAGUACUCGUGGUCG
Outline: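 Pooled colonies went to amplicon sequencing on an Illumina HiSeq 2500 after six replicate transformations. The plates were LB agar with 100 μg/mL carbenicillin, 50 μM IPTG and 0.2% rhamnose, with or without 25 μg/mL kanamycin, incubated overnight at 37°C or 30°C. The E. coli BL21(DE3) library had all eight P1ex-region intron nucleotides randomised, the intron placed in the knt kanamycin-resistance gene on pET-22b(+). DiMSum fitness is the error-weighted combination of replicate fold changes, kanamycin against none, normalised to wild type.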

Row | Sequence | self-splicing fitness (ln) (30 °C) | self-splicing fitness (ln) (37 °C)
1 | AUAAAGCAAUAUUACGUGCC | -0.00478 ± 0.083 | 0.162 ± 0.12
2 | AGUGAGCAAUAUUACGCGUG | -4.06 ± 0.28 | -2.34 ± 0.15
3 | GCGCAGCAAUAUUACGUAUC | -0.438 ± 0.068 | -0.609 ± 0.085
4 | CAUCAGCAAUAUUACGAGGU | -3.46 ± 0.21 | -2.86 ± 0.22
5 | AAGCAGCAAUAUUACGUGGC | -4.15 ± 0.39 | -1.92 ± 0.2
6 | AAAUAGCAAUAUUACGUCUU | 0.225 ± 0.074 | 0.263 ± 0.092
7 | GUUAAGCAAUAUUACGUCAU | -1.5 ± 0.1 | -0.179 ± 0.12
8 | AUGCAGCAAUAUUACGUGGU | -2.7 ± 0.095 | -2.18 ± 0.1
9 | CGCGAGCAAUAUUACGGUUG | -1.73 ± 0.068 | -1.76 ± 0.12
10 | GGAGAGCAAUAUUACGGAGA | -2.3 ± 0.29 | 
11 | GGCUAGCAAUAUUACGGUCU | -2.92 ± 0.44 | -0.649 ± 0.21
12 | AAUCAGCAAUAUUACGAAUU | -0.152 ± 0.1 | 0.193 ± 0.13
13 | UAGAAGCAAUAUUACGACGC | -1.84 ± 0.33 | -1.21 ± 0.24
14 | GCAGAGCAAUAUUACGCGUU | -1.48 ± 0.11 | -2.09 ± 0.16
15 | CGGGAGCAAUAUUACGUUUC | -3.92 ± 0.46 | 
16 | GCCUAGCAAUAUUACGAAGA | -1.82 ± 0.24 | -0.65 ± 0.12
17 | AAUAAGCAAUAUUACGCUUC | -3.51 ± 0.23 | -2.59 ± 0.23
18 | CCUCAGCAAUAUUACGACGG | -2.74 ± 0.18 | -1.64 ± 0.27
19 | CGACAGCAAUAUUACGUCUU | -0.458 ± 0.066 | -0.212 ± 0.073
20 | AUUUAGCAAUAUUACGCUGA | -1.32 ± 0.19 | -2.44 ± 0.3
21 | AUGUAGCAAUAUUACGUGUG | -3.33 ± 0.23 | -2.53 ± 0.15
22 | CCAUAGCAAUAUUACGAGCG | -0.63 ± 0.095 | -2.73e-06 ± 0.12
23 | UGAAAGCAAUAUUACGACGG | -0.788 ± 0.1 | -0.64 ± 0.1
24 | CCUUAGCAAUAUUACGCUCU | -3.8 ± 0.43 | -0.731 ± 0.38
25 | UUACAGCAAUAUUACGACAA | -0.25 ± 0.07 | 0.353 ± 0.083
26 | UGUUAGCAAUAUUACGUGCG | -1.23 ± 0.11 | -0.303 ± 0.14
27 | UACAAGCAAUAUUACGUAAG | -3.96 ± 0.21 | -3.05 ± 0.19

Row | Sequence | self-splicing fitness (ln) (30 °C) | self-splicing fitness (ln) (37 °C)
28 | CAUCAGCAAUAUUACGAGGC | -3.77 ± 0.2 | -2.64 ± 0.21
29 | UAACAGCAAUAUUACGCACC | -2.33 ± 0.29 | -1.88 ± 0.43
30 | CGUUAGCAAUAUUACGAAUC | -2.95 ± 0.28 | -2.42 ± 0.3
31 | UAUGAGCAAUAUUACGCGUG | -1.88 ± 0.12 | -1.04 ± 0.11
32 | GCCUAGCAAUAUUACGCGAC | -1.92 ± 0.19 | -1.05 ± 0.27
33 | UUCAAGCAAUAUUACGUACA | -0.901 ± 0.11 | -0.478 ± 0.13
34 | GAAUAGCAAUAUUACGAUCC | -1.16 ± 0.14 | -0.622 ± 0.15
35 | ACCCAGCAAUAUUACGGUGC | -1.11 ± 0.069 | -0.261 ± 0.086
36 | GAUCAGCAAUAUUACGCCGC | -2.29 ± 0.44 | -1.19 ± 0.28
37 | CAGCAGCAAUAUUACGGUAG | -0.155 ± 0.087 | 0.0584 ± 0.11
38 | GUAGAGCAAUAUUACGAAAA |  | -0.266 ± 0.44
39 | CUCGAGCAAUAUUACGUGGC |  | -0.934 ± 0.32
40 | ACGUAGCAAUAUUACGAUUC | -2.39 ± 0.11 | -2.41 ± 0.21
41 | AUAAAGCAAUAUUACGCAAU | -0.8 ± 0.074 | -0.703 ± 0.11
42 | ACAUAGCAAUAUUACGUAAU | -2.87 ± 0.11 | -1.93 ± 0.14
43 | UUAAAGCAAUAUUACGUCGA | 0.349 ± 0.082 | 0.262 ± 0.095
44 | CCGUAGCAAUAUUACGAUUA | -2.57 ± 0.2 | -1.86 ± 0.26
45 | ACCAAGCAAUAUUACGCCCC | -1.37 ± 0.35 | 0.27 ± 0.24
46 | GCAAAGCAAUAUUACGGGCA | -1.3 ± 0.085 | -0.907 ± 0.079
47 | CUCGAGCAAUAUUACGUUGG | -3.48 ± 0.18 | -3.17 ± 0.14
48 | CUACAGCAAUAUUACGGACU | -1.76 ± 0.17 | -1.75 ± 0.19
49 | GUUUAGCAAUAUUACGUGUU | -2.4 ± 0.13 | -2.35 ± 0.14
50 | AGCGAGCAAUAUUACGAGGC | -3.16 ± 0.44 | 
51 | CCGGAGCAAUAUUACGCAUG | -1.66 ± 0.14 | 0.0371 ± 0.22
52 | AACGAGCAAUAUUACGCCUU | -3.47 ± 0.16 | -1.8 ± 0.11
53 | CAACAGCAAUAUUACGACGC | -0.56 ± 0.065 | -0.0606 ± 0.085
54 | UCUAAGCAAUAUUACGGGGU | -2.9 ± 0.26 | -2.45 ± 0.21

Row | Sequence | self-splicing fitness (ln) (30 °C) | self-splicing fitness (ln) (37 °C)
55 | AAACAGCAAUAUUACGAUAG | -2.76 ± 0.1 | -2.14 ± 0.12
56 | GUAGAGCAAUAUUACGACUC | 0.512 ± 0.23 | 0.484 ± 0.38
57 | GUGGAGCAAUAUUACGAGUG |  | -1.74 ± 0.36
58 | GCCGAGCAAUAUUACGGGCU | -3.27 ± 0.23 | -2.43 ± 0.27
59 | AUACAGCAAUAUUACGUACA | -0.262 ± 0.081 | -0.215 ± 0.11
60 | AAAAAGCAAUAUUACGUAGG | -1.7 ± 0.093 | -1.66 ± 0.11
61 | GGAAAGCAAUAUUACGUCUG | -0.579 ± 0.054 | 0.2 ± 0.07
62 | UGGAAGCAAUAUUACGUAAU | -3.03 ± 0.18 | -0.953 ± 0.16
63 | GACGAGCAAUAUUACGUAUG | -2.4 ± 0.17 | -1.58 ± 0.16
64 | UCUCAGCAAUAUUACGUCAG | -3.54 ± 0.25 | -3.16 ± 0.27
65 | GUGCAGCAAUAUUACGGCAA | 0.24 ± 0.12 | 0.291 ± 0.15
66 | CAAGAGCAAUAUUACGAACU | -3.41 ± 0.27 | -2.11 ± 0.26
67 | CCAUAGCAAUAUUACGUCGC | -3.46 ± 0.22 | -3.74 ± 0.31
68 | AUUCAGCAAUAUUACGGGAC | -3.2 ± 0.16 | -1.2 ± 0.12
69 | UUUAAGCAAUAUUACGCUUC | -2.24 ± 0.35 | 
70 | AAGCAGCAAUAUUACGGUCC | -1.17 ± 0.1 | -0.771 ± 0.17
71 | GAAUAGCAAUAUUACGCGAU | -3.41 ± 0.2 | -2.5 ± 0.19
72 | AUUAAGCAAUAUUACGGGGG | -2.97 ± 0.27 | -2.33 ± 0.33
73 | UCACAGCAAUAUUACGAGAA | -3.16 ± 0.34 | -1.68 ± 0.24
74 | UGGUAGCAAUAUUACGGUGA | -1.36 ± 0.12 | -1.34 ± 0.12
75 | CGGAAGCAAUAUUACGUCUC | -4.07 ± 0.39 | -2.3 ± 0.19
76 | GUCUAGCAAUAUUACGGCCG |  | -1.78 ± 0.35
77 | GAUAAGCAAUAUUACGAGUU | -2.26 ± 0.14 | -1.27 ± 0.16
78 | UCGAAGCAAUAUUACGCUAA |  | -2.07 ± 0.36
79 | ACGCAGCAAUAUUACGGCUU | -0.345 ± 0.046 | -0.227 ± 0.057
